Substrate: S proteins of SARS-CoV-2 and mutant strains thereof on pseudoviruses
Assay: cell-based or functional assay

B1: fully human monoclonal antibody 76E1 (antibody, V domains shown)
VH: EVQLVESGGGVVQPGGSLRLSCEASGFSFKDYGMHWIRQTPGKGLEWISRISGDTRGTSYVDSVKGRFIVSRDNSRNSLFLQMNSLRSEDTALYYCAALVIVAAGDDFDLWGQGTVVTVSS
VL: QSALTQPLSVSGSPGQSVTISCTGSSSDIGSYNFVSWYRQYPGKAPKVMIYEVNKRPSGVPVRFSGSKSGNTASLTVSGLQHEDEADYYCCSYGGRNNLIFGGGTKLTVL
**Q.** Which IC50 of pseudovirus neutralization (luciferase activity) does the source give for B1 here?
**A.** Its IC50 of pseudovirus neutralization (luciferase activity) is 0.397 µg/mL.
